Laboratory results reported in publication PMC2173397.

Biological target: T1, Apaf-1 (human (endogenous in HeLa)), O14727
T1 chain: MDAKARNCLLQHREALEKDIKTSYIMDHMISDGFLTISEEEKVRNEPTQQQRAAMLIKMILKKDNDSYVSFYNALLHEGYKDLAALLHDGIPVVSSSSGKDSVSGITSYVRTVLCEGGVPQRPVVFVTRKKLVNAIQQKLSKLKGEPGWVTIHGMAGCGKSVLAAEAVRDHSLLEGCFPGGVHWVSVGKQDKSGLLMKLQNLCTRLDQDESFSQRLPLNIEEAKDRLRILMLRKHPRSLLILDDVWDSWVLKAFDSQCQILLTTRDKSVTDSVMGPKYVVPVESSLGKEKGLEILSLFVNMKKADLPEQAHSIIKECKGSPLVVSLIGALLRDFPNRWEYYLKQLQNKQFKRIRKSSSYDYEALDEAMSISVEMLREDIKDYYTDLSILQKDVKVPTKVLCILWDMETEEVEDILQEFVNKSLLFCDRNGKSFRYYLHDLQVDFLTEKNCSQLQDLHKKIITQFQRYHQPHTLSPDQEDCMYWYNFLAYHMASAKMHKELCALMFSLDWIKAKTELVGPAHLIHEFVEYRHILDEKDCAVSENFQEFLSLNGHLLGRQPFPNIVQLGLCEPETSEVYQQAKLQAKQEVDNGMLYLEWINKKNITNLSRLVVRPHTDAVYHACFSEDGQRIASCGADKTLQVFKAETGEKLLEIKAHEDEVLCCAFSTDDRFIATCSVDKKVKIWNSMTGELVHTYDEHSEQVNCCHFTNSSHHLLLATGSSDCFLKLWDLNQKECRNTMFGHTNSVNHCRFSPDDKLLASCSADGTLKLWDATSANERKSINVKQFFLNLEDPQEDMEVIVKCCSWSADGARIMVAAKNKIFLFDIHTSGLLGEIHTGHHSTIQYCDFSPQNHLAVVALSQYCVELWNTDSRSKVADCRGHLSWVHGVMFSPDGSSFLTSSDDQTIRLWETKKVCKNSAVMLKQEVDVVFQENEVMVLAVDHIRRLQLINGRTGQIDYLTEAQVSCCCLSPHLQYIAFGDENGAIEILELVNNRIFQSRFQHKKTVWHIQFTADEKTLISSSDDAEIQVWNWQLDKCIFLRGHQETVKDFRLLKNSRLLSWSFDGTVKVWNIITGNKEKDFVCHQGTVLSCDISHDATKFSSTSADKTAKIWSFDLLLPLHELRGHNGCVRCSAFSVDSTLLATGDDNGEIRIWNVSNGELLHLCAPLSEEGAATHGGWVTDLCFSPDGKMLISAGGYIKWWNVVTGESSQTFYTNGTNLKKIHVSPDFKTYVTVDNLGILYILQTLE
Assay: SEC
Settings: remark: other sources report otherwise

B1: caspase-9, P55211 1-416 (natural protein)
chain: MDEADRRLLRRCRLRLVEELQVDQLWDALLSRELFRPHMIEDIQRAGSGSRRDQARQLIIDLETRGSQALPLFISCLEDTGQDMLASFLRTNRQAAKLSKPTLENLTPVVLRPEIRKPEVLRPETPRPVDIGSGGFGDVGALESLRGNADLAYILSMEPCGHCLIINNVNFCRESGLRTRTGSNIDCEKLRRRFSSLHFMVEVKGDLTAKKMVLALLELAQQDHGALDCCVVVILSHGCQASHLQFPGAVYGTDGCPVSVEKIVNIFNGTSCPSLGGKPKLFFIQACGGEQKDHGFEVASTSPEDESPGSNPEPDATPFQEGLRTFDQLDAISSLPTPSDIFVSYSTFPGFVSWRDPKSGSWYVETLDDIFEQWAHSEDLQSLLLRVANAVSVKGIYKQMPGCFNFLRKKLFFKTS
- percent recruited to the high Mr complex: 50%
